Laboratory results: patent US20220010006A1 (BEIJING HANMI PHARMACEUTICAL, published 2022)

Key:
[1] = target: transmembrane TNFα on Jurkat/tmTNFα cells; assay: cell-based or functional assay
mouse IL-17A = target: T1, mouse IL-17A (mouse, UniProt Q62386 26-158); assay: ELISA, plate-coated antigen 1 µg/mL, anti-human IgG-HRP
T1 construct: also called recombinant mouse IL-17A
T1 sequence (looked up): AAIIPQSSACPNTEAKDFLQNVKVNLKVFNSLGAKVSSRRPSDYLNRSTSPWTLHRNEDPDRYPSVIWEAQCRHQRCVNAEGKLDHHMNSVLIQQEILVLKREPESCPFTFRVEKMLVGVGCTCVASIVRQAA
Procedure: (§1) Detailed procedures are as follows: the recombinant mouse TNFα, rat TNFα, mouse IL-17A and rat IL-17A (all purchased from Sino Biological, P. R. China) were coated on wells of a 96-well high-adsorption ELISA plate using a carbonate buffer solution of pH 9.6 at a coating concentration of 1 μg/mL and in a coating amount of 100 μL per well. The coating was performed at 4° C. overnight. The wells were washed with PBST 5 times. The wells were blocked with 300 μL per well of PBST containing 1% BSA, and incubated for 1 hour at 25° C., and washed with PBST 5 times. […] The wells were washed with PBST 5 times. Then, horseradish peroxidase-labeled anti-human IgG antibody (Chemicon, cat #AP 309P) 1:10000 diluted in PBST containing 1% BSA was added in an amount of 100 μL per well, and incubated at 25° C. for 1 hour. The wells were washed with PBST 5 times. The chromogenic substrate TMB was added in an amount of 100 μL per well, and color developed at room temperature for 10 minutes. Color development was terminated by adding 1M H₂SO₄ in an amount of 100 μL per well. The absorbance at 450 nm was read on a microplate reader.

rat IL-17A = target: T2, rat IL-17A (rat, UniProt Q61453 18-150, limits assumed); assay: as above
T2 construct: also called recombinant rat IL-17A
T2 sequence (looked up): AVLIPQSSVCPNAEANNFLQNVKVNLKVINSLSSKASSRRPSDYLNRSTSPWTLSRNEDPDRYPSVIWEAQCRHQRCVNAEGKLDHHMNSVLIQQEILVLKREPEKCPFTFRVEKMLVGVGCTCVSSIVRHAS
Procedure: as §1

For Enbrel® (Fc fusion), which Apoptosis ratio (%) of Jurkat/tmTNFα cells, Enbrel 1 µg/mL [1] is on record?
The Apoptosis ratio (%) of Jurkat/tmTNFα cells, Enbrel 1 µg/mL was 19%.

And the Apoptosis ratio (%) of Jurkat/tmTNFα cells, Enbrel 10 µg/mL [1]?
The Apoptosis ratio (%) of Jurkat/tmTNFα cells, Enbrel 10 µg/mL was 21%.

Humira® (antibody) was tested. Which Apoptosis ratio (%) of Jurkat/tmTNFα cells, Humira 1 µg/mL [1] did it give?
The Apoptosis ratio (%) of Jurkat/tmTNFα cells, Humira 1 µg/mL was 29.9%.

And the Apoptosis ratio (%) of Jurkat/tmTNFα cells, Humira 10 µg/mL [1]?
The Apoptosis ratio (%) of Jurkat/tmTNFα cells, Humira 10 µg/mL was 28.2%.

B1: anti-mouse IL-17A monoclonal antibody (1D10 variable regions) (antibody, V domains shown)
VH: QVQLKESGPGLVQPSQTLSLTCTVSGFSLTNYYVHWVRQPPGKGLEWMGGVWNDGDTSYNSVLRSRLSITRDTSKSQVLLKMSSLQTEDTATYYCAREGREGFVGYYVMDAWGPGASVTVSS
VL: DIQMTQSPSFLSASVGERVTLSCKASQNINKYLDWFQQKLGEAPKLLIYNADNLHTGIPSRFSGSGSFSDFILTISSLQPEDDATYFCLQRESWPYTFGAGTKLELK
notes: Parental control of BH1654; variable regions from U.S. Pat. No. 7,846,443, 1D10; also called The anti-mouse IL-17A monoclonal antibody; anti-mouse IL-17A mAb
What does the source list for B1?
EC50 (mouse IL-17A): 0.027 nM; EC50 (rat IL-17A): 0.032 nM
